Reference: patent publication US11466066B2, “Variants of human BMP7 protein” (ELI LILLY AND COMPANY, priority 2017, dated 2022)

Columns and labels:
3T3-L1 fibroblasts = assay: Alkaline phosphatase stimulation in 3T3-L1 cells; type: cell-based; conditions: 1 μg/ml pro-BMP7, 1 μM ATRA, 48 hours
Method: 3T3-L1 fibroblasts and MFc7 mouse renal myofibroblasts may be grown essentially as described in Example 2 above. After 48 hours the cells may be washed with PBS prior to the addition of either DMEM/2% dialyzed FBS or OPTI-MEM/2% dialyzed FBS medium containing control vehicle, 1 μg/ml human proBMP7 protein, 1 μM ATRA or a combination of both human BMP7 protein (1 μg/ml) and ATRA (1 μM) may be added for 48 hours. After treatment the cells may be rinsed with PBS and stored at −80° C. for approximately 20 minutes. The cells may be thawed at 37° C. for 30 minutes and 100 μl of PNPP may be added to every well. The plate may be incubated at 37° C. for 1 hour. The absorbance at 405 nm may be read on a plate reader.

RAR alpha = RAR alpha protein expression, Western Blot; type: cell-based, mouse; conditions: MFc7 and 3T3-L1 cell lines; 1 μg/mL, 48 hours; Western Blot intensity
Method: (§1) 3T3-L1 fibroblasts and MFc7 mouse renal myofibroblasts may be maintained under routine cell culture conditions in DMEM/10% calf serum medium or OPTI-MEM/10% FBS medium, respectively. The cells may be plated in 10 cm tissue culture plates at a seeding density of 500,000 cells/plate. After 48 hours, the cells may be washed with PBS prior to the addition of either DMEM/2% dialyzed FBS or OPTI-MEM/2% dialyzed FBS medium containing 1 μg/mL human BMP7 protein or 1 μg/mL of a human BMP7 protein variant. The cells may be incubated for 48 hours and then rinsed with ice-cold PBS, and then lysed with Protein Extraction Reagent. Then lysates may be centrifuged at 14,000×g for 15 minutes. A Bradford protein assay may be performed to determine the protein concentration of each lysate. Equivalent amounts of protein (for example, 25 μg) may be resolved by SDS-PAGE and then transferred to nitrocellulose membranes for Western Blot analysis. The membranes may be probed with an anti-RAR alpha antibody and/or an anti-RAR gamma antibody.

RAR gamma = RAR gamma protein expression, Western Blot; type: cell-based, mouse; conditions: MFc7 and 3T3-L1 cell lines; 1 μg/mL, 48 hours; Western Blot intensity
Method: as §1

[1] = tested on: MFc7 mouse renal myofibroblasts; assay: MFc7 bioassay; type: cell-based; conditions: EC50 of wild type BMP7 protein/EC50 of the variant; multiple amino acid changes (Table 3)
Method: MFc7 mouse renal myofibroblasts (mouse kidney fibroblast cell line) may be maintained under routine cell culture conditions in OPTI-MEM/10% FBS medium. The cells may be plated in 10 cm tissue culture plates at a seeding density of 500,000 cells/plate. After approximately 48 hours, the cells may be washed with phosphate buffered saline (PBS) prior to the addition of OPTI-MEM/2% dialyzed fetal bovine serum (FBS) medium containing 1 μg/ml BMP7 protein or 1 μg/ml of a BMP7 protein variant and incubated for 48 hours. After treatment the cells may be rinsed with PBS and stored at −80° C. for 20 minutes. After thawing the cells at 37° C. for 30 minutes 100 μl of para-nitrophenyl phosphate (PNPP) may be added. The plate may be incubated at 37° C. for 1 hour. The absorbance at 405 nm may be read utilizing a plate reader. The average relative potency (EC50 of wild type BMP7 protein/EC50 of the BMP7 protein variant) of certain human BMP7 protein variants of the present invention may be calculated based on such readings.

Wild type human pro-BMP7: homodimers of wild type human mature BMP7 in a non-covalent complex with wild type human pro-domain [reference compound]
fold change in alkaline phosphatase stimulation relative to control vehicle treated cells (3T3-L1 fibroblasts): 1.2 fold

B1: Human mature BMP7 protein variant F9 (SEQ ID NO: 8): homodimer wherein each monomeric subunit has SEQ ID NO: 8 (Y65G/I86L/F93V/N110G/Y128W), disulfide linked (protein)
chain: STGSKQRSQNRSKTPKNQEALRMANVAENSSSDQRQACKKHELYVSFRDLGWQDWIIAPEGYAAGYCEGECAFPLNSYMNATNHALVQTLVHVINPETVPKPCCAPTQLGAISVLYFDDSSNVILKKWRNMVVRACGCH
modifications: homodimer, disulfide linked
RAR alpha protein expression (RAR alpha): stimulated | RAR gamma protein expression (RAR gamma): stimulated | Average Relative Potency [1]: 69
